Test results: publication PMC4415419, “The bZIP transcription factor HY5 interacts with the promoter of the monoterpene synthase gene QH6 in modulating its rhythmic expression”

Biological target: T1, GST-HY5 (Arabidopsis thaliana, UniProt O24646 1-168)
T1 sequence: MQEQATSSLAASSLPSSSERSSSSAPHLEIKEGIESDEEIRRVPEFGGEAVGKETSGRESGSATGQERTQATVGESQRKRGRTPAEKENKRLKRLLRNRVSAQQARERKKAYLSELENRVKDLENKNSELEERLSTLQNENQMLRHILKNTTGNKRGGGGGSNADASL
Experiment: EMSA; 5 ug protein, 20 fmol probe; shift abolished by unlabeled 52-bp competitor (0.5-4 pmol); LightShift Chemiluminescent EMSA kit (Pierce), 20 uL, 8% native PAGE in 1x TBE; salt, pH and temperature not stated
Details: protein: recombinant; tags: N-terminal GST (pGEX-4T-1); chain copies: 2; label: biotin; blunt

B1: 391-442 (QH6 promoter G-box probe) (dsDNA)
DNA 1: CCTTTAAGTTGCTCTATTTTGACACGTGGCAAAATAATATCTATCTACCCAC
DNA 2: GTGGGTAGATAGATATTATTTTGCCACGTGTCAAAATAGAGCAACTTAAAGG
Does B1 bind?
Result: binds
